# According to patent US20220389075A1:
# B1: α-CD28 + β-41BB (Linker GGS) (TCR)
# TCR alpha: KQEVTQIPAALSVPEGENLVLNCSFTDSAIYNLQWFRQDPGKGLTSLLLIQSSQREQTSGRLNASLDKSSGRSTLYIAASQPGDSATYLCAVRPLYGGSYIPTFGRGTSLIVHPYIQNPDPAVYQLRDSKSSDKSVCLFTDFDSQTNVSQSKDSDVYITDKCVLDMRSMDFKSNSAVAWSNKSDFACANAFNNSIIPEDTFFPSPESSCDVKLVEKSFETDTNLNFQNLSVIGFRILLLKVAGFNLLMTLRLWSSGGSRSKRSRLLHSDYMNMTPRRPGPTRKHYQPYAPPRDFAAYRS
# TCR beta: NAGVTQTPKFQVLKTGQSMTLQCAQDMNHEYMSWYRQDPGMGLRLIHYSVGAGITDQGEVPNGYNVSRSTTEDFPLRLLSAAPSQTSVYFCASSYVGNTGELFFGEGSRLTVLEDLKNVFPPEVAVFEPSEAEISHTQKATLVCLATGFYPDHVELSWWVNGKEVHSGVCTDPQPLKEQPALNDSRYCLSSRLRVSATFWQNPRNHFRCQVQFYGLSENDEWTQDRAKPVTQIVSAEAWGRADCGFTSESYQQGVLSA
# B2: α-CD28 + β (Linker GGS) (TCR)
# TCR alpha: B1 TCR alpha
# TCR beta: B1 TCR beta
# B3: α-CD28 + β-CD28 (Linker GGS) (TCR)
# TCR alpha: B1 TCR alpha
# TCR beta: NAGVTQTPKFQVLKTGQSMTLQCAQDMNHEYMSWYRQDPGMGLRLIHYSVGAGITDQGEVPNGYNVSRSTTEDFPLRLLSAAPSQTSVYFCASSYVGNTGELFFGEGSRLTVLEDLKNVFPPEVAVFEPSEAEISHTQKATLVCLATGFYPDHVELSWWVNGKEVHSGVCTDPQPLKEQPALNDSRYCLSSRLRVSATFWQNPRNHFRCQVQFYGLSENDEWTQDRAKPVTQIVSAEAWGRADCGFTSESYQQGVLSATILYEILLGKATLYAVLVSALVLMAMVKRKDSRGGGSRSKRSRLLHSDYMNMTPRRPGPTRKHYQPYAPPRDFAAYRS
# Molecular target: Alexa Fluor 647-labeled NY-ESO-1-MHC tetramer
# Assay: flow cytometry of transfected Jurkat NFAT-luciferase cells stained with Alexa Fluor 647-labeled NY-ESO-1-MHC tetramer; x axis Alexa 647-A; Empty Vector gate 0.46
row,NYESO+,Binder
1,52.3%,B1
2,64.5%,B2
3,53.6%,B3
